Holding throughout (test): SEC-MALS; SEC-LS: size exclusion chromatography coupled light scattering, Agilent MDS system, Agilent BioSEC 5 1000 Å or GE Superdex 200 column; detector offsets calibrated with BSA, concentrations by refractive index
Data set [1] deals with Myc_(GH172) (GII36_05205), DUF2961 homolog from Candidatus Mycosynbacter amalyticus (Candidatus Mycosynbacter amalyticus).
Data set [2] concerns the target Dg_(GH172b) (HMPREF9455_02471), DUF2961 family GH172 exo-D-arabinofuranosidase from Dysgonomonas gadei (Dysgonomonas gadei) (UniProt F5IZF4).
The target of data set [3] is Dg_(GH172a) (HMPREF9455_02467), DUF2961 family GH172 exo-D-arabinofuranosidase from Dysgonomonas gadei (Dysgonomonas gadei) (UniProt F5IZF0).
Data set [4] concerns the target Dg_(GH172c) (HMPREF9455_02479), DUF2961 family GH172 exo-D-arabinofuranosidase from Dysgonomonas gadei (Dysgonomonas gadei) (UniProt F5IZG2).
Data set [5] concerns the molecule itself.

The molecule “Myc_(GH172) (GII36_05205), DUF2961 homolog from Candidatus Mycosynbacter amalyticus (enzyme)” registered a stoichiometry N in data set [1] of 3.
Consider “Dg_(GH172b) (HMPREF9455_02471), DUF2961 family GH172 exo-D-arabinofuranosidase from Dysgonomonas gadei (from UniProt F5IZF4 1-643) (enzyme)”, for which, in data set [2], the stoichiometry N is 2.
For the molecule “Dg_(GH172a) (HMPREF9455_02467), DUF2961 family GH172 exo-D-arabinofuranosidase from Dysgonomonas gadei (from UniProt F5IZF0 1-386) (enzyme)”, the stoichiometry N in data set [3] was 12.
Take “Dg_(GH172c) (HMPREF9455_02479), DUF2961 family GH172 exo-D-arabinofuranosidase from Dysgonomonas gadei (from UniProt F5IZG2 1-402) (enzyme)”: in data set [4], the stoichiometry N worked out at 6.

B1: Noc_(GH172) (O3I_017420), DUF2961 family GH172 enzyme from Nocardia brasiliensis (enzyme, UniProt K0EX55 1-342, looked up)
chain: MTPPRRSELWLLDDTRTRSVSAENPTGAPGGGARATTGTGAHAARLLGPGWKISPSIVLGDGETATLADVSGPGVLRHCWLTTDRAALRELTLRMYWDDAAEPAIDVPLGDFFCNGWDELALVDSEMVVVAPAGGLNSYWPMPFRRRARITLENHCGRSVPVYYQITYGEEDVPGEAGYLHARWSRSAPLGSPAVHTLLDTGPARGRYVGTYLAIRPGAPRWWGEGEMKFYLDGDDEYPTLCGTGTEDYFGGAWNFDMDGKYRTYSTAYLGLPQALPADEIYQAHQRFGMYRWHVHDPICFHRELRVTVQGLGWRDSDTYLPLEDAEIATTVWWYQEVPPSG
notes: O3I_017420, DUF2961 homologue, Nocardia brasiliensis; codon-optimized gene bought from Twist Biosciences; also called GH172Noc; source: E. coli BL21-DE3, purified (IMAC, size exclusion chromatography)
Consider B1, for which the “stoichiometry N” value in data set [5] was found to be 3.

The values above are taken from publication PMC10115798, “Identification of D-arabinan-degrading enzymes in mycobacteria” (Nature Communications, 2023).
